Molecular target: T1, CPY*-CPY fusion protein (S. cerevisiae) (UniProt P00729)
T1 sequence (P00729 whole entry, looked up): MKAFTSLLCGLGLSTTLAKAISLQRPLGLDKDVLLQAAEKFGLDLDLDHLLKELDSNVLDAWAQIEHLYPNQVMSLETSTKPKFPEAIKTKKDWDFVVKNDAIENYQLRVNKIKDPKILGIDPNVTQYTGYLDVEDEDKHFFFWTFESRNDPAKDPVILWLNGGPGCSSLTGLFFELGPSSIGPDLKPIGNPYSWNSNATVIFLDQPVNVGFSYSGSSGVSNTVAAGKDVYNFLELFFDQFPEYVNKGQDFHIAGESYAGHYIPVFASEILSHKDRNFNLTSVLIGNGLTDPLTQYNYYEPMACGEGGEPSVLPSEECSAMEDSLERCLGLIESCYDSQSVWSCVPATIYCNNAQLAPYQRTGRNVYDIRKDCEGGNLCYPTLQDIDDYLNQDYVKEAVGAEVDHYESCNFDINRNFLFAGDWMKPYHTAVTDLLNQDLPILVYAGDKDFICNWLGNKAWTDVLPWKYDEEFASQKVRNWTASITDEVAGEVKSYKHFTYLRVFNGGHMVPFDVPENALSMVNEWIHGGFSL
Assay: co-IP

inhibition of the co-precipitation in yos9Δ cells against wild-type cells: 70%
B1: Hrd1p (enzyme)
chain: MVPENRRKQLAIFVVVTYLLTFYCVYSATKTSVSFLQVTLKLNEGFNLMVLSIFILLNSTLLWQLLTKLLFGELRLIEHEHIFERLPFTIINTLFMSSLFHERYFFTVAFFGLLLLYLKVFHWILKDRLEALLQSINDSTTMKTLIFSRFSFNLVLLAVVDYQIITRCISSIYTNQKSDIESTSLYLIQVMEFTMLLIDLLNLFLQTCLNFWEFYRSQQSLSNENNHIVHGDPTDENTVESDQSQPVLNDDDDDDDDDRQFTGLEGKFMYEKAIDVFTRFLKTALHLSMLIPFRMPMMLLKDVVWDILALYQSGTSLWKIWRNNKQLDDTLVTVTVEQLQNSANDDNICIICMDELIHSPNQQTWKNKNKKPKRLPCGHILHLSCLKNWMERSQTCPICRLPVFDEKGNVVQTTFTSNSDITTQTTVTDSTGIATDQQGFANEVDLLPTRTTSPDIRIVPTQNIDTLAMRTRSTSTPSPTWYTFPLHKTGDNSVGSSRSAYEFLITNSDEKENGIPVKLTIENHEVNSLHGDGGEQIAKKIVIPDKFIQHI

— article PMC3315801
